The values that follow come from patent publication US20110086770A1.

Assay [1] deals with T1, recombinant human DR 4 receptor Fc fusion protein (R&D Systems) (human).
T1 sequence (O00220 whole entry, looked up): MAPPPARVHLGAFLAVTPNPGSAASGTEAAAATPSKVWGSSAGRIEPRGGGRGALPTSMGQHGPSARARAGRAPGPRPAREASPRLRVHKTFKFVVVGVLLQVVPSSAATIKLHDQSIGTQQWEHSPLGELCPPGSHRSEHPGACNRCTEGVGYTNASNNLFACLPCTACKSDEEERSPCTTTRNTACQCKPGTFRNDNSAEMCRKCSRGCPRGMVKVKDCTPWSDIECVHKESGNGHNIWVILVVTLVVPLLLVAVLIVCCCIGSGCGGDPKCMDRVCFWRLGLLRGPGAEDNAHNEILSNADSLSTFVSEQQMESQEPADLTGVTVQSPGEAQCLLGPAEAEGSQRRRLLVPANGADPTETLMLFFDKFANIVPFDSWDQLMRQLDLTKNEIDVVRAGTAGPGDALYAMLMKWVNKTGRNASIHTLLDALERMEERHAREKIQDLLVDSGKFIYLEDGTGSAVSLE
The experiment in a line: SPR (Biacore), captured DR4/Fc. (In general: SPR reads the build-up and loss of mass on a sensor chip optically.)

For assay [2], the target named is recombinant human DR 5 receptor Fc fusion protein (R&D Systems) (human). The assay can be described thus: SPR (Biacore), captured DR5/Fc.
Chain of recombinant human DR 5 receptor Fc fusion protein (R&D Systems) (human) (O14763 whole entry, the tested form may be a part): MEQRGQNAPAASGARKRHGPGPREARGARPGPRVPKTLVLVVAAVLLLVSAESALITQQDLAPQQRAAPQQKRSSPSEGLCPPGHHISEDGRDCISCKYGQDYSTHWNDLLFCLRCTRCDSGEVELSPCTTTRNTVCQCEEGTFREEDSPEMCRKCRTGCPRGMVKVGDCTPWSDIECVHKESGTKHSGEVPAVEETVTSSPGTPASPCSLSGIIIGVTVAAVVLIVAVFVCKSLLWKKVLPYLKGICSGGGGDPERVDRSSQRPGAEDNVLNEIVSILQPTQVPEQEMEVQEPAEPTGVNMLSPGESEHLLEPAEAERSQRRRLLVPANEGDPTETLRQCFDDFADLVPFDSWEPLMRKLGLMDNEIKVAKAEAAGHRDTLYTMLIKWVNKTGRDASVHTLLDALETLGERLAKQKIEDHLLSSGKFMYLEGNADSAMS

B1: 014-42.3D10 ATRIMER (designed binder, part only; not given: nothing essential, part only)
chain, part: EPPTQKPKKIVNAKKDVVNTKMFEELKSRLDTLAQEVALLKEQQALQTVCLKGTKVHMKCFLAFTQTKTFHEASEDCISRGGTLSTPQTGSENDALYEYLRQSVGNEAEIWLGLNVDMTGARIAYKNWETEITAQPCAVLSGAANGKWFDKRCRDQLPYICQFGIV
For orientation: Kd means the free concentration of one partner at which half of the binding sites on the other are occupied at equilibrium, for simple one-to-one binding. One may read the koff as the first-order rate constant of dissociation. Usually kon stands for the rate constant with which the complex forms. On to B1, for which, in assay [1], the Ka amounted to 6.58e+06 M⁻¹, the Kd stood at 152 nM, the koff worked out at 0.00185 s⁻¹ and the association rate constant (kon) was 12200 M⁻¹ s⁻¹.

B2: 014-42.3B8 ATRIMER (designed binder, part only; not given: nothing essential, part only)
chain, part: B1 chain, part
Take B2: in assay [1], the Ka is 1.11e+08 M⁻¹, the equilibrium dissociation constant (Kd) stood at 9.01 nM, the koff worked out at 0.00101 s⁻¹ and the kon was found to be 112000 M⁻¹ s⁻¹.

B3: 4a8c (=A3C) DR 5 ATRIMER (designed binder, from a related filing, part only)
chain: EPPTQKPKKIVNAKKDVVNTKMFEELKSRLDTLAQEVALLKEQQALQTVCLKGTKVHMKCFLAFTQTKTFHEASEDCISRGGTLSTPQTGSENDALYEYLRQSVGNEAEIWLGLNRATLRPRWVDMTGARIAYKNWETEITAQPDGGKNCAVLSGAANGKWFDKRCRDQLPYICQFGIV
Consider B3, for which, in assay [2], the Ka came to 1.74e+08 M⁻¹, the Kd was found to be 5.74 nM, the off-rate (koff) is 0.000362 s⁻¹ and the kon came to 63000 M⁻¹ s⁻¹.
